The test system of the data set is RISR-RIAD peptide with myc and ddk (FLAG) tags, expressed in T cells.

The values that follow come from patent US20200390811A1.

Sequence of RISR-RIAD peptide with myc and ddk (FLAG) tags, expressed in T cells (chain, as listed by the source): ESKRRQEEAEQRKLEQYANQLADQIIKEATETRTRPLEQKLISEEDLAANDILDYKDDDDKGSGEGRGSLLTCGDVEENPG

As for “Protein kinase A (PKA), RI regulatory subunit”, the “phosphorylation of Csk-S364 and Lck-Y505 (blot, FIG. 2)” value was “RISR-RIAD expression prevented phosphorylation of Csk-S364 and Lck-Y505”.
